In patent CN116284371A (SUZHOU FANGKE BIOTECHNOLOGY CO LTD; SUZHOU INST OF SYSTEMS …, dated 2023):

Biological target: T1, 重组蛋白MDA5 (MDA5抗原蛋白) (Homo sapiens (Human), UniProt Q9BYX4 1-1025)
T1 construct: Recombinant MDA5 from a synthetic gene in pFastBac1 (EcoRI/XbaI); also called MDA5蛋白
T1 sequence: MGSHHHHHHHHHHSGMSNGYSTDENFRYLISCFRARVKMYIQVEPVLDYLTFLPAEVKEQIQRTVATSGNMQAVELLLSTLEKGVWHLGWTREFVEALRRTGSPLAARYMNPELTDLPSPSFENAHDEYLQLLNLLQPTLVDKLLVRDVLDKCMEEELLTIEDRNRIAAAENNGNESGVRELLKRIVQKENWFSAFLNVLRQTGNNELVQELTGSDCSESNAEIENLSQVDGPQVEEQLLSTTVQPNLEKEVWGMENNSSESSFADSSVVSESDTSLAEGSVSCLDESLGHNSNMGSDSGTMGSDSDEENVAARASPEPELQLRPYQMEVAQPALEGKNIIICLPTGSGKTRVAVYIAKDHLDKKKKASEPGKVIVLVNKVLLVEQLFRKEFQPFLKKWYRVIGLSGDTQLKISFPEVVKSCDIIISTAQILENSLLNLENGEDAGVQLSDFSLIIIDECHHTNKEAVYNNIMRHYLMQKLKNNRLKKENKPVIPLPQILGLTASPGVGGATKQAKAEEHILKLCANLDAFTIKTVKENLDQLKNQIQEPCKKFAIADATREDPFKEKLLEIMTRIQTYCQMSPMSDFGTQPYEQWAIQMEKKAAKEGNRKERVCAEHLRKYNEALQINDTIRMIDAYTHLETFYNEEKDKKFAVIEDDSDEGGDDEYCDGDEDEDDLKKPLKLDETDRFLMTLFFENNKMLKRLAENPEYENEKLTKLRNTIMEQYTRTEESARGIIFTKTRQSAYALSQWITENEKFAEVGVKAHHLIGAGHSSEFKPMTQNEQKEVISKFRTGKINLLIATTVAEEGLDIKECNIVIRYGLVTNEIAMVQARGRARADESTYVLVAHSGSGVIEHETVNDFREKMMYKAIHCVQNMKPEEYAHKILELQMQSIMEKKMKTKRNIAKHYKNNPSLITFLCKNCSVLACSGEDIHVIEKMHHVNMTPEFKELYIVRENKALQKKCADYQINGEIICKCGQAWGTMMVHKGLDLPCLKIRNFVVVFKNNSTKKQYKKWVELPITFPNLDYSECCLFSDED
Test: ELISA, MDA5 coated 4 ug/mL, antibody dilution series, anti-human IgG-HRP

B1: 76F-MDA5-R2P1-G5抗体 (antibody, human IgG1, kappa, V domains shown)
VH: QVQLVESGGGVVQPGRSLRLSCAASGFTFSSYAMHWVRQAPGKGLEWVAVISYDGSNKYYADSVKGRFTISRDNSKNTLYLQMNSLRAEDTAVYYCARHRRYAFDIWGQGTTVTVSS
VL: QAVLTQPASVSGSPGQSITISCTGTSSDVGGYNYVSWYQQHPGKAPKLMIYDVSKRPSGVSNRFSGSKSGNTASLTISGLQAEDEADYYCSSYVVSYTWVFGGGTKVTVLR
notes: The printed heavy and light chain entries appear to start with a leader peptide
binding result: binds
